From patent publication US20250262210A1 (TRUSTEES OF COLUMBIA UNIVERSITY IN THE CITY OF NEW YORK, published 2025)

Columns and labels:
Experiment in all cases: IP/MS, LZTR1 wild type-FLAG, U87
TRRAP = TRRAP (human, UniProt Q9Y4A5 2-3859, limits assumed)
Outline: (§1)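 Extracted peptides in 3% acetonitrile/0.1% formic acid ran on a 50 cm C18 column into an Orbitrap Fusion, with MaxQuant identification and spectral counting.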

MED24 = biological target: T1, MED24 (human, UniProt O75448 1-989, limits assumed)
T1 sequence (looked up): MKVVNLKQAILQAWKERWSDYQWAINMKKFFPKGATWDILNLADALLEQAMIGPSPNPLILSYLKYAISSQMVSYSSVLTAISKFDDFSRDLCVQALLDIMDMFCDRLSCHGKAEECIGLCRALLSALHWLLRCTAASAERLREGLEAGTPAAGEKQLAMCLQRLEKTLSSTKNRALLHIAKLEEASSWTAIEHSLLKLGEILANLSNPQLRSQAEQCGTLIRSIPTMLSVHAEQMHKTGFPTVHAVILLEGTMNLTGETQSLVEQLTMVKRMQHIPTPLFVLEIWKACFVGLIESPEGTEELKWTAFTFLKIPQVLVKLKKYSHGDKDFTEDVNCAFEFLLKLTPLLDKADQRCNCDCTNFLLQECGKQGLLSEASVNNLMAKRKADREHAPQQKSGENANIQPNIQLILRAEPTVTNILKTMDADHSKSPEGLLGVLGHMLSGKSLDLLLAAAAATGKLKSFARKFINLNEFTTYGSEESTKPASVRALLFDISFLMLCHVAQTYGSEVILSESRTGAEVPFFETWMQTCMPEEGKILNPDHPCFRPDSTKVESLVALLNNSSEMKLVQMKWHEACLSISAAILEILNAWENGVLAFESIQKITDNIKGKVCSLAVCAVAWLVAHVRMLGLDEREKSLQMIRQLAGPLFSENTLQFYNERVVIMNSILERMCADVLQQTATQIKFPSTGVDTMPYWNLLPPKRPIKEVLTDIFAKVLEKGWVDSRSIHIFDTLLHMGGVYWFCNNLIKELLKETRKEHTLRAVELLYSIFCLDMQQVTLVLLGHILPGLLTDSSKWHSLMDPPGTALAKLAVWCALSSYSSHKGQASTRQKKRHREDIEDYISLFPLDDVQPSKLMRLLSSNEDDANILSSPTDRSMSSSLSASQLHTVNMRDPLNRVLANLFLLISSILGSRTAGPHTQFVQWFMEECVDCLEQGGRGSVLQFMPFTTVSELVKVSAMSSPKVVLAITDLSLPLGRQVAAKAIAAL
Outline: as §1

THADA = THADA (human, UniProt Q6YHU6 1-1953, limits assumed)
Chain of THADA (Q6YHU6 whole entry): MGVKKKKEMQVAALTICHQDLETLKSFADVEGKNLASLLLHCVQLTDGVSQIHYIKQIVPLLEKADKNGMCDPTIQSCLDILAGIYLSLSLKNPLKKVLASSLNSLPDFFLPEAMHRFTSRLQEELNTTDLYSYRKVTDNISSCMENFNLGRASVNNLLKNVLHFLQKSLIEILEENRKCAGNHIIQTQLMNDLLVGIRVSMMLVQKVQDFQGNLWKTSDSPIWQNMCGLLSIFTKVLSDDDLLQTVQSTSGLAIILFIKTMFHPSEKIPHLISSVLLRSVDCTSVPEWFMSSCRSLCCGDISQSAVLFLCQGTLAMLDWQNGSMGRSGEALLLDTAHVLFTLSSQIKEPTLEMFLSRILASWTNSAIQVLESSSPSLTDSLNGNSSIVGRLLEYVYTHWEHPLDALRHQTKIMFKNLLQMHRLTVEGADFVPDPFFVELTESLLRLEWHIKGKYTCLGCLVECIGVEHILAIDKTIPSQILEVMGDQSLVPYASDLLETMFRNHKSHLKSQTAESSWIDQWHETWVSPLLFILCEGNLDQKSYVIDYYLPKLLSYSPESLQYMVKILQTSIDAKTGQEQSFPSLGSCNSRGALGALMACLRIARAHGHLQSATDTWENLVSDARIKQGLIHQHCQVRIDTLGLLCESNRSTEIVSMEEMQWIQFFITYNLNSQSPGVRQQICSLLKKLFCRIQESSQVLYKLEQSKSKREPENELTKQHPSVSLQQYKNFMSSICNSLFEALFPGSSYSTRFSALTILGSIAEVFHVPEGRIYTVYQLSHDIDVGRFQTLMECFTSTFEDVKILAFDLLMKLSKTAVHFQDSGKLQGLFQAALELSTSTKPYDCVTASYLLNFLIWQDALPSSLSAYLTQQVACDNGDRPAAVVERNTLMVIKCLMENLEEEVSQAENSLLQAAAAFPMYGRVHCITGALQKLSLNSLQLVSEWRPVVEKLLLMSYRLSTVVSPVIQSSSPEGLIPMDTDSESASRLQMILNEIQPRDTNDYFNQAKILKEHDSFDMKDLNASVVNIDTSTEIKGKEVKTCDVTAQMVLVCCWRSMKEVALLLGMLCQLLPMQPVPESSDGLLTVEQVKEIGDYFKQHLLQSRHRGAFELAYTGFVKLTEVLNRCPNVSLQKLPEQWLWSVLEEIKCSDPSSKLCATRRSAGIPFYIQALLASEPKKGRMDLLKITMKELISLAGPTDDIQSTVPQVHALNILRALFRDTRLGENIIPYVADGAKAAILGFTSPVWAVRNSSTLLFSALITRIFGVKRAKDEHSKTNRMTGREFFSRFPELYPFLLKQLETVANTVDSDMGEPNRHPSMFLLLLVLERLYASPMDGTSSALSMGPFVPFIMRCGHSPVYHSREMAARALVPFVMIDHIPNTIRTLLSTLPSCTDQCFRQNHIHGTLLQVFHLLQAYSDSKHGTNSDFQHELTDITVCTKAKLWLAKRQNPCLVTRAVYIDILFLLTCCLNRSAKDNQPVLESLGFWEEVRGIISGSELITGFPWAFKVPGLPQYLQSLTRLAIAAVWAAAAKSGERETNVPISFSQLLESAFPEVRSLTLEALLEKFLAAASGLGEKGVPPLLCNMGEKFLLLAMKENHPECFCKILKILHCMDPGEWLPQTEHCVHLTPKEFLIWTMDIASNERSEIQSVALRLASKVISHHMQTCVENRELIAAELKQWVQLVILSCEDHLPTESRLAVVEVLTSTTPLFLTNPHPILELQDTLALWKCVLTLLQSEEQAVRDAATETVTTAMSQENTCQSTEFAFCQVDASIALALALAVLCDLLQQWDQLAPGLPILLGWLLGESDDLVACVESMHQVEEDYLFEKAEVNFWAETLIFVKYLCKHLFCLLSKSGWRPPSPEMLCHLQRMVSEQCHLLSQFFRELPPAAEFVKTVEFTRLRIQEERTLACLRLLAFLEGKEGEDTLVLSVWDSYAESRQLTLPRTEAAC
Outline: as §1

CDC42BPA = CDC42BPA (human, UniProt Q5VT25 1-1732, limits assumed)
Chain of CDC42BPA (Q5VT25 whole entry): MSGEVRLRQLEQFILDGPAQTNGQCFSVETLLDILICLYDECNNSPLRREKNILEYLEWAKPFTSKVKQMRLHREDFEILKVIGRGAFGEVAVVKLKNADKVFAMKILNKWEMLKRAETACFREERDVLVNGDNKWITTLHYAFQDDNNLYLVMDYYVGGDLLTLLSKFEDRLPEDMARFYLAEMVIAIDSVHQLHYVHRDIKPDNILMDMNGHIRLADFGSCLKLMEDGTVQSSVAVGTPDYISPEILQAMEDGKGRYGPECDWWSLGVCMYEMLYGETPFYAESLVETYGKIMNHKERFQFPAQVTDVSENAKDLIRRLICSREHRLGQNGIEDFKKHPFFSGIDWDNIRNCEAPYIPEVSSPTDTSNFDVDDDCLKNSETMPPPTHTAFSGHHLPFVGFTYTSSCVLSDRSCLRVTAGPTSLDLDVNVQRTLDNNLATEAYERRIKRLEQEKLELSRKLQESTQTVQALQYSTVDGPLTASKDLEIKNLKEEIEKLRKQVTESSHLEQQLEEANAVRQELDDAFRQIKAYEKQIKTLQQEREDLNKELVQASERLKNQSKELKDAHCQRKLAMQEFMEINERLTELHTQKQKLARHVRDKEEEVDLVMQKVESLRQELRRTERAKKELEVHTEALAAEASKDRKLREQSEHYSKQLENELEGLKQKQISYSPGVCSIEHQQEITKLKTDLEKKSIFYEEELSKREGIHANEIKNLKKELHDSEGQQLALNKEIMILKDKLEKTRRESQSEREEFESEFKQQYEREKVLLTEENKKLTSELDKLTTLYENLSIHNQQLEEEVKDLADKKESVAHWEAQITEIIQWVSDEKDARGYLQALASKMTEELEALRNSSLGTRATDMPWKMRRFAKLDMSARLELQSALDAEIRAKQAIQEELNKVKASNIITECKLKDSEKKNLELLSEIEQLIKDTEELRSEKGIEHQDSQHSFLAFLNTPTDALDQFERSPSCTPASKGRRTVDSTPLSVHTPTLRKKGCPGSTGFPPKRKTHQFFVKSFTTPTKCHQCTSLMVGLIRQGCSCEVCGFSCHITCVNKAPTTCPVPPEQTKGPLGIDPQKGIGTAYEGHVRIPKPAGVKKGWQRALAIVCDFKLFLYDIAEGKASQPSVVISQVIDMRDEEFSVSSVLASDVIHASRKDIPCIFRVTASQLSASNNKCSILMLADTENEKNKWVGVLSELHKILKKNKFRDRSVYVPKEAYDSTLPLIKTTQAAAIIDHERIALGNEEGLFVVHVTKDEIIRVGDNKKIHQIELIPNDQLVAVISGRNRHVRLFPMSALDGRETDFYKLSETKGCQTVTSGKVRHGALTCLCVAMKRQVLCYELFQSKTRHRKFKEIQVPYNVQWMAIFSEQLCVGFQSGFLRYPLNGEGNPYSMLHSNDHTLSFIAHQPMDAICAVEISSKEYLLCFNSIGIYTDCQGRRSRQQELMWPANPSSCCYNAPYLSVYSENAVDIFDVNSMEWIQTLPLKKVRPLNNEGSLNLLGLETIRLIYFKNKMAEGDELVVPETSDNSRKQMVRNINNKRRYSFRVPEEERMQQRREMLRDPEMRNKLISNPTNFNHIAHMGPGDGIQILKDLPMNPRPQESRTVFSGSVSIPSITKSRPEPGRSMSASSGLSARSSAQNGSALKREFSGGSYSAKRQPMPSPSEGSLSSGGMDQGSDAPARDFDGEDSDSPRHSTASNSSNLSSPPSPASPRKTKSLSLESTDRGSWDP
Outline: as §1

AP4E1 = biological target: T2, AP4E1 (human, UniProt Q9UPM8 1-1137, limits assumed)
T2 sequence (looked up): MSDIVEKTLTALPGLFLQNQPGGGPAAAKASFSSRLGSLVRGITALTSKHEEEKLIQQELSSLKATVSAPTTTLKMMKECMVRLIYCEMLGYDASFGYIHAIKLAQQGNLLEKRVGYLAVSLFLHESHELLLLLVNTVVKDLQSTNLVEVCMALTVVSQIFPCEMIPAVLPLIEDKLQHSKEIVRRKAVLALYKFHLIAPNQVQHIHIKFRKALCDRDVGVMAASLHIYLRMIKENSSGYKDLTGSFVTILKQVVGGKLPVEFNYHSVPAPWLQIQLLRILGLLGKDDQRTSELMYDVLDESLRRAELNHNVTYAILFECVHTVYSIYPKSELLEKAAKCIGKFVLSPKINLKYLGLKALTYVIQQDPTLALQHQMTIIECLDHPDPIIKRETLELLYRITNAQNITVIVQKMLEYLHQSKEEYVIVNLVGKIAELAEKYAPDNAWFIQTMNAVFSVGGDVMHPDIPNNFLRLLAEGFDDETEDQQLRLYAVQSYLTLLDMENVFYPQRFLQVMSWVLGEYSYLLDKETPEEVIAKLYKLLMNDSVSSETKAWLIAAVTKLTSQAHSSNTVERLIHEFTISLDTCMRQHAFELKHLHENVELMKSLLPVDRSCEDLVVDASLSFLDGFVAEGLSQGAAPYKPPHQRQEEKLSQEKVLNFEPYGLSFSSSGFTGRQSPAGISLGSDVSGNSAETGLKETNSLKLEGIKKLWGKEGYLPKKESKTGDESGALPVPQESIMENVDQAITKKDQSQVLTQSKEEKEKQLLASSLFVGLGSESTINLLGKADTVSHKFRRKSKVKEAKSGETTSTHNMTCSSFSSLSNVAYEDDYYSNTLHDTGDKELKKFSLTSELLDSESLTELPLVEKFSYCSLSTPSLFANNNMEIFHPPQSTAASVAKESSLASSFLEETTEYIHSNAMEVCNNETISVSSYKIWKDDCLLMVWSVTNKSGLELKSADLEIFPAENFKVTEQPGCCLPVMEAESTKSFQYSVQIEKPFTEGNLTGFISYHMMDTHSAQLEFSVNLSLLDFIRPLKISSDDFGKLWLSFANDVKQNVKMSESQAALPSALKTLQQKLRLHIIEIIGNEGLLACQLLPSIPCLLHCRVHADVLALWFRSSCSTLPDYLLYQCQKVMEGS
Outline: as §1

binding result (TRRAP): binds
binding result (MED24): binds
binding result (THADA): binds
binding result (CDC42BPA): binds
binding result (AP4E1): binds
B1: LZTR1-FLAG (other, human, UniProt Q8N653 1-840, looked up)
chain: MAGPGSTGGQIGAAALAGGARSKVAPSVDFDHSCSDSVEYLTLNFGPFETVHRWRRLPPCDEFVGARRSKHTVVAYKDAIYVFGGDNGKTMLNDLLRFDVKDCSWCRAFTTGTPPAPRYHHSAVVYGSSMFVFGGYTGDIYSNSNLKNKNDLFEYKFATGQWTEWKIEGRLPVARSAHGATVYSDKLWIFAGYDGNARLNDMWTIGLQDRELTCWEEVAQSGEIPPSCCNFPVAVCRDKMFVFSGQSGAKITNNLFQFEFKDKTWTRIPTEHLLRGSPPPPQRRYGHTMVAFDRHLYVFGGAADNTLPNELHCYDVDFQTWEVVQPSSDSEVGGAEVPERACASEEVPTLTYEERVGFKKSRDVFGLDFGTTSAKQPTQPASELPSGRLFHAAAVISDAMYIFGGTVDNNIRSGEMYRFQFSCYPKCTLHEDYGRLWESRQFCDVEFVLGEKEECVQGHVAIVTARSRWLRRKITQARERLAQKLEQEAAPVPREAPGVAAGGARPPLLHVAIREAEARPFEVLMQFLYTDKIKYPRKGHVEDVLLIMDVYKLALSFQLCRLEQLCRQYIEASVDLQNVLVVCESAARLQLSQLKEHCLNFVVKESHFNQVIMMKEFERLSSPLIVEIVRRKQQPPPRTPLDQPVDIGTSLIQDMKAYLEGAGAEFCDITLLLDGHPRPAHKAILAARSSYFEAMFRSFMPEDGQVNISIGEMVPSRQAFESMLRYIYYGEVNMPPEDSLYLFAAPYYYGFYNNRLQAYCKQNLEMNVTVQNVLQILEAADKTQALDMKRHCLHIIVHQFTKVSKLPTLRSLSQQLLLDIIDSLASHISDKQCAELGADI
notes: Expressed in HEK 293T, HeLa or U87 cells; used as cell lysate; also called LZTR1 wild type-FLAG; LZTR1 WT; not shown: FLAG tag at the C-terminus
